Results from patent WO2019096294A1.

Target: His-tagged human prothrombin (human) (UniProt P00734)
Assay: binding ELISA; His-tagged human prothrombin coated on plate

EC50: 0.282 µg/mL
Substance: Ichorcumab (antibody)
